This series deals with T1, BsSsbA (Bacillus subtilis, UniProt P37455 1-104).
T1 sequence: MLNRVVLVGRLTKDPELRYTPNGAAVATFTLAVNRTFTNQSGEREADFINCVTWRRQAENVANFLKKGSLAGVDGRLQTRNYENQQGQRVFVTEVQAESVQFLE
The series is described as follows: X-ray crystallography.

The values that follow come from article PMC6331220.

B1: dT35 (ssDNA)
DNA: TTTTTTTTTTTTTTTTTTTTTTTTTTTTTTTTTTT
As to B1, the binding result was “binds”.
